Data: article PMC3776556, “Crystal structures of the CPAP/STIL complex reveal its role in centriole assembly and human microcephaly” (eLife, 2013)

T1: Danio rerio CPAP^937–1124 TCP domain, WT (Danio rerio, UniProt E7FCY1 937-1124)
T1 construct: remnant of the cloning and protease cleavage sites at the N-terminus; also called TCP domain of D. rerio CPAP; G-box; source: E. coli BL21 (DE3) Rosetta, purified (NiNTA, proteolytic tag cleavage, optionally size exclusion, ion exchange); not shown: His tag, N-terminal, cleaved
T1 sequence: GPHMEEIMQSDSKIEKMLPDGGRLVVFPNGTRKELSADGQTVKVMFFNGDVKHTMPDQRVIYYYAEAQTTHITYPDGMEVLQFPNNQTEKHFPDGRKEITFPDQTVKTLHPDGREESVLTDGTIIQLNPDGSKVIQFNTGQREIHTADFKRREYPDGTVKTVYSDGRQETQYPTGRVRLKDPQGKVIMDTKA

T2: Drosophila melanogaster DSas-4 (dCPAP) TCP domain, residues 700–901 (Drosophila melanogaster, UniProt Q9VI72 700-901)
T2 construct: source: E. coli B834 (DE3), purified (NiNTA, proteolytic tag cleavage, size exclusion), as a fusion with dSTIL^1–47
T2 sequence (looked up): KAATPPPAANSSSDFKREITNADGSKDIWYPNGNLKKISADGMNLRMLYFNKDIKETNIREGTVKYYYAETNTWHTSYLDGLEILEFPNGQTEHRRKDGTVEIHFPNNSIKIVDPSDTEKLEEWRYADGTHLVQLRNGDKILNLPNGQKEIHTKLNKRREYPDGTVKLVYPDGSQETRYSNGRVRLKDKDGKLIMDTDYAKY

B1: Danio rerio STIL^408–428 (peptide)
chain: GSGVEDEDLSPRPSPNPHPVSQENLYFQ
notes: remnant of the cloning and protease cleavage sites at the N-terminus; remnant of the cloning and protease cleavage sites at the C-terminus; used for crystallisation only; also called STIL peptide; source: E. coli C41 BL21 (DE3), purified (NiNTA, proteolytic cleavage of the His-lipoyl domains, ion exchange); not shown: His-tagged lipoyl domain (Bacillus stearothermophilus dihydrolipoamide …)
B2: Drosophila melanogaster Ana2 (dSTIL) residues 1–47 (domain or fragment, UniProt Q9XZ31 1-47, looked up)
chain: MFVPETEDMLPRLAPRPSAAVPMGHTNEIIGPTVPEVSILFGQPPQD
notes: Ana2 (dSTIL), Drosophila melanogaster, residues 1-47, the region equivalent to CR2; codon-optimised gene; no linker or residues left by tag cleavage are told; also called dSTIL^1–47; dSTIL peptide; not shown: His tag, N-terminal, cleaved
B3: SAS-4^WT::GFP: C. elegans WT SAS-4 (aa 1–808) GFP fusion, RNAi-resistant transgene (protein, UniProt P34402 1-808, looked up)
chain: MASDENIGADGEQKPSRPFLRKGQGTARFRMPRNNKTSAGAPPTSELSSASSPSINVPRFSLSNALPNSARTVDSGISNEDETRPPTTASLPMDQPSLSSSPENRLNPAPSVAEEHGHSGQHAEEEEDNDTDEVSAMPSFVPDEPSTLVNSDHELSDDALKYKNAAAEFKAFERRMDSMRSASTITTSLATPSSCAPSNSSEPPTRSTPIMNDLGVGPNNHNWPSSMQELSGISLETPQARPLGSNRINQLVRSEAQTGISLLQHHERPTVTAPLRRNDMMNSSRQNPQNGNVQDENRPEHVYDQPIHVPGSSLDRQKLEIEIRRHRNLNIQLRDTIAHLDYAEESVHTTKRQLEEKISEVNNFKKELIEEFKKCKKGVEEEFEKKFEKIKEDYDELYEKLKRDQRDLERDQKILKKGTGERNKEFTETIATLRDKLRASETKNAQYRQDIRVRDEKLKKKDEEIEKLQKDGNRLKSTLQTLEKRVKQLRTEKERDDKEKEMFAKVAMNRKTSNPVPPVLNQSVPISITSNGPSRHPSSSSLTTFRKPSTSNRERGVSWADEPNEQSLEAVPQEFLMMPVKEMPGKFGKCTIYRDSLGETSKVTDTIANGLLFEYSNGDLRWVNRQNAVNIYISAVDKTVRIDLPTYNISIIHTFQRQVEVLRPGNNITLISIKRREVRTDLIYQNGMYKTEIFNRDGRYVTKDFSNQEVSRKYNPGTHTYRDNQCRYVLVTDYNDFELVEPEFRLRWYQGDPTGLNNQYILKIIGRPECSEKTLRLEVNLSTCEGTLETAEMIGDKRRKTTLFQWKK
modifications: full-length GFP fusion
notes: C. elegans WT SAS-4 (aa 1–808) GFP fusion, RNAi-resistant transgene
B4: SAS-4^ΔTCP::GFP: C. elegans SAS-4 (aa 1–556) with TCP domain (aa 557–808) deleted, GFP fusion (protein, UniProt P34402 1-556, looked up, fragment)
chain: MASDENIGADGEQKPSRPFLRKGQGTARFRMPRNNKTSAGAPPTSELSSASSPSINVPRFSLSNALPNSARTVDSGISNEDETRPPTTASLPMDQPSLSSSPENRLNPAPSVAEEHGHSGQHAEEEEDNDTDEVSAMPSFVPDEPSTLVNSDHELSDDALKYKNAAAEFKAFERRMDSMRSASTITTSLATPSSCAPSNSSEPPTRSTPIMNDLGVGPNNHNWPSSMQELSGISLETPQARPLGSNRINQLVRSEAQTGISLLQHHERPTVTAPLRRNDMMNSSRQNPQNGNVQDENRPEHVYDQPIHVPGSSLDRQKLEIEIRRHRNLNIQLRDTIAHLDYAEESVHTTKRQLEEKISEVNNFKKELIEEFKKCKKGVEEEFEKKFEKIKEDYDELYEKLKRDQRDLERDQKILKKGTGERNKEFTETIATLRDKLRASETKNAQYRQDIRVRDEKLKKKDEEIEKLQKDGNRLKSTLQTLEKRVKQLRTEKERDDKEKEMFAKVAMNRKTSNPVPPVLNQSVPISITSNGPSRHPSSSSLTTFRKPSTSNRERG
modifications: GFP fusion
notes: C. elegans SAS-4 (aa 1–556) with TCP domain (aa 557–808) deleted, GFP fusion
B5: full-length SAS-4: in vitro translated full-length C. elegans SAS-4, 35S-labelled (protein)
chain: B3 chain
modifications: ^35S-Met labelling

What was measured:
[1] = target: T1, Danio rerio CPAP^937–1124 TCP domain, WT; assay: crystal structure; D. rerio CPAP^937–1124 with D. rerio STIL^408–428, protein/peptide mixture; 100 mM Tris pH 8.5, 200 mM CaAcetate, 17% PEG-2000 MME, 19.5°C; conditions: both partners purified
[2] = target: T2, Drosophila melanogaster DSas-4 (dCPAP) …; assay: crystal structure; D. melanogaster dSTIL^1–47 fused to the N-terminus of dCPAP^700–901 on one chain; sitting drop, Morpheus screen; conditions: both partners purified
[3] = system: sas-4(RNAi) C. elegans embryos; assay: Monopolar spindle assay after sas-4(RNAi); type: in vivo; conditions: second division
Source text: (§1) C. elegans strains carrying single-copy sas-4 transgenes were generated using MosSCI ([Frøkjær-Jensen et al., 2008]). To render the transgenes RNAi-resistant, a 500 bp region at the 5′ end of the sas-4 genomic sequence was re-encoded. The engineered sas-4 sequence was cloned into pCFJ151 with the promoter and 3′ UTR from sas-6, as well as a C-terminal GFP tag. pCFJ151 contains homology arms that direct transposase-mediated insertion of intervening sequence into the ttTi5606 Mos1 site on Chromosome II. Transgene integration was confirmed by PCR of regions spanning each side of the insertion. The genotypes of the strains used are: unc-119(ed9)III; ltSi85[pOD1550; Psas-6::SAS-4 reencoded::GFP; cb-unc-119(+)]II for WT SAS-4; and unc-119(ed9)III; ltSi177[pOD1551; Psas-6::SAS-4(1-556) reencoded::GFP; cb-unc-119(+)]II for SAS-4^ΔTCP.
(§2) Double-stranded sas-4 RNA was generated as described ([Oegema et al., 2001]) using DNA templates prepared by PCR. For experiments to quantify monopolar spindle formation, L4 hermaphrodites were injected with dsRNA and incubated at 20°C for 40 hr prior to dissection for imaging. For lethality assays, worms were maintained at 20°C. L4 hermaphrodites were injected with dsRNA and singled 24 hr post-injection. Adult worms were removed from the plates 48 hr post-injection, and hatched larvae and unhatched embryos were counted 24 hr later. […]

[4] = system: centrioles in sas-4(RNAi) C. elegans embryos; assay: Localisation of SAS-4::GFP in absence of endogenous protein; type: in vivo
Source text: as §1, §2

[5] = system: sas-4(RNAi) C. elegans embryos; assay: Embryonic viability after sas-4(RNAi); type: in vivo
Source text: as §1
Double-stranded sas-4 RNA was generated as described ([Oegema et al., 2001]) using DNA templates prepared by PCR. For experiments to quantify monopolar spindle formation, L4 hermaphrodites were injected with dsRNA and incubated at 20°C for 40 hr prior to dissection for imaging. For lethality assays, worms were maintained at 20°C. L4 hermaphrodites were injected with dsRNA and singled 24 hr post-injection. Adult worms were removed from the plates 48 hr post-injection, and hatched larvae and unhatched embryos were counted 24 hr later.

[6] = system: SAS-5 N-terminal domain (aa 1–202); assay: Ni-NTA pull-down of 35S-labelled SAS-4 fragments by SAS-5; type: binding, C. elegans; conditions: 25 mM HEPES, 100 mM NaCl, pH 7.4, 4°C, 30 min; SAS-5-6xHis bait on Ni-NTA
Description: SAS-4 constructs were cloned into a pET21a vector for in vitro transcription/translation. Proteins were expressed using the T7 TNT Quick Coupled Transcription/Translation System (Promega, Fitchburg, WI) with ^35S-Met labelling.
SAS-5 fragments were cloned into a pRSET-A vector with a C-terminal 6xHis tag. Proteins were expressed in E. coli Rosetta2(DE3) cells and purified on Ni-NTA agarose (Qiagen) using standard protocols. For pull-down experiments, proteins were dialysed into 25 mM HEPES, 100 mM NaCl, 20 mM imidazole, 1 mM DTT, 10% sucrose, 0.02% Tween-20, pH 7.4.
SAS-5 fragments were pre-incubated with 20 μl Ni-NTA beads for 45 min at 4°C. 10 μl of the SAS-4 IVTT product was added to the beads with 190 μl buffer and incubated at 4°C for 30 min. The beads were washed with 3 × 200 μl buffer and resuspended in 100 μl SDS-PAGE sample buffer. Samples were run on 10% SDS-PAGE gels and either stained with Coomassie or dried and exposed to a phosphor screen overnight. Phosphor screens were analysed on a Personal Molecular Imager System (Bio-Rad, Hercules, CA).

Molecule	rescue of monopolar spindle phenotype [3]	centriole targeting [4]	rescue of embryonic viability [5]	further results
B1	–	–	–	binding result [1]: binds
B2	–	–	–	binding result [2]: binds
B3	fully rescued	targeted to centrioles	fully rescued	–
B4	not by the ΔTCP transgene	did not, and instead exhibited a diffuse accumulation in the pericentriolar material	not by the ΔTCP transgene	–
B5	–	–	–	interaction with SAS-5 in pull-down [6]: interacted specifically with the N-terminal domain (aa 1–202) of SAS-5
